Target: OsPHR2-6XHIS (Oryza sativa, UniProt Q6Z156 1-426)
Test: EMSA; 0.7 ug protein, 50 ng probe; 15 mM HEPES pH 8.0, 30 mM KCl, 1 mM MgCl2, 0.2 mM EDTA, 0.02 mM DTT, 0.6% glycerol, 1 ug poly(dI-dC) in 20 ul, 20 °C 30 min (1 h with 15 mM NaH2PO4 for inhibition assay); gel 0.5X TBE at 4 °C
Details: protein: recombinant; tags: 6xHis (pET28a); chain copies: 2; label: DIG 3' end; blunt

Chain of OsPHR2-6XHIS (Q6Z156 whole entry): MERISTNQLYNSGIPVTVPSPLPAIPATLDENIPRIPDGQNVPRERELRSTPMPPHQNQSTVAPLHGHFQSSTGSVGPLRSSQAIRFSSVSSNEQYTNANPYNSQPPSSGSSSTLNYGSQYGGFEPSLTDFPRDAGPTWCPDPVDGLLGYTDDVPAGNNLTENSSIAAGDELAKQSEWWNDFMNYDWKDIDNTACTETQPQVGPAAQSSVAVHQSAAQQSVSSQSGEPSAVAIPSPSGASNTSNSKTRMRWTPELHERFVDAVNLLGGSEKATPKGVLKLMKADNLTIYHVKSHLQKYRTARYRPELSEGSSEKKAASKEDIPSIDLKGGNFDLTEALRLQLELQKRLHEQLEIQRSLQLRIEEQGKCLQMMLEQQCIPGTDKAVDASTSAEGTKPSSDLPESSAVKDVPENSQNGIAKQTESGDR

B1: OsSPX2 promoter P1BS probe (dsDNA)
DNA 1: TATCCCCGTCACGAATATTCCTCTTCCTCC
DNA 2: GGAGGAAGAGGAATATTCGTGACGGGGATA
binding result: binds
